# Data published in paper PMC4605297.
# pKi: −log10 of the molar value.
# Target: T1, SsOGT C29A C29A (Sulfolobus solfataricus) (UniProt Q97VW7)
# T1 sequence: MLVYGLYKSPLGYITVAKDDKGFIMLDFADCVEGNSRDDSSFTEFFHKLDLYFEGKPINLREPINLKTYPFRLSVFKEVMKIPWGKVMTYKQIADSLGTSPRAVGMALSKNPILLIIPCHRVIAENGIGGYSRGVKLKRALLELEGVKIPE
# Experiment: competition
# Settings: O6-methylguanine at position 26 of strand 1; EMSA: 0-25 uM protein, 0.2 uM probe, 37 C 10 min, 10 ul, buffer as ref. 17, 8% native PAGE in 1X TBE pH 8.3; competition: BG-VG assay, 50 C under ref. …
sequence,measurement,value
GGCAGTAGGCCTAGCATGACAATCTGCATTGGTGATCACGG / CGCTCATCCACAATGCAGATTGTCATGCTAGGCCTACTGCC [ds-Fwdm26],pKi,5.99
